Test results published in publication PMC11391049 (Life Science Alliance, 2024).

B4: β7-subunit (natural protein, S. cerevisiae, UniProt P30657 34-266, looked up)
chain: TQQPIVTGTSVISMKYDNGVIIAADNLGSYGSLLRFNGVERLIPVGDNTVVGISGDISDMQHIERLLKDLVTENAYDNPLADAEEALEPSYIFEYLATVMYQRRSKMNPLWNAIIVAGVQSNGDQFLRYVNLLGVTYSSPTLATGFGAHMANPLLRKVVDRESDIPKTTVQVAEEAIVNAMRVLYYRDARSSRNFSLAIIDKNTGLTFKKNLQVENMKWDFAKDIKGYGTQKI
notes: 20S proteasome subunit β7, S. cerevisiae, without its 33-residue propeptide (β7pro); the last 10 residues of the C-terminal extension are not resolved there

Experiments:
[1] = target: B4; assay: cryo-EM structure; uncapped, fully matured 20S pre1-1CP isolated via FLAG-6xHis on β4; 2.0 Å with C2 symmetry; conditions: both partners purified
[2] = target: T1, Blm10 (S. cerevisiae, UniProt P43583 1-2143); assay: cryo-EM structure; native pre1-1CP-Blm10 complex copurified via FLAG-6xHis on β4; 2.4 Å, no symmetry applied; conditions: both partners purified
T1 construct: also called Blm10 chaperone

[3] = target: T2, β5 precursor (β5-subunit with unprocessed β5-propeptide) (S. cerevisiae, UniProt P30656 1-287); assay: cryo-EM structure; late-PC (doubly capped with Pba1-Pba2) isolated via FLAG-6xHis on β4 from pre1-1 cells; 2.1 Å with C2 symmetry, 2.3 Å without; sub-populations late-PC1 (2.7 Å) and late-PC2 (2.3 Å); conditions: both partners purified
T2 construct: β5/Pre2, S. cerevisiae, unprocessed precursor with the whole 75-residue propeptide (all but -65, -64 and -13 resolved); numbers count on: the mature subunit (Thr1 = +1, propeptide residues negative); also called Pre2; precursor form of the β5-subunit
T2 sequence (looked up): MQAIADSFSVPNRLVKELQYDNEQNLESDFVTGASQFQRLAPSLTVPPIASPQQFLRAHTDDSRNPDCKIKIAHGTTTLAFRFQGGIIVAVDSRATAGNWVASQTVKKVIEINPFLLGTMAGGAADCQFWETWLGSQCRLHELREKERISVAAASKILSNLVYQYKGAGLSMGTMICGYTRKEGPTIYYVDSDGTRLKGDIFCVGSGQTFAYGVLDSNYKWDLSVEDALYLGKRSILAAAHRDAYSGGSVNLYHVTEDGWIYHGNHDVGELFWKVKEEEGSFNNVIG

[4] = target: T3, β4-S142F (pre1-1) with FLAG-6xHis-tag (S. cerevisiae, UniProt P22141 1-198, S142F); assay: affinity purification with mass spectrometry; tandem affinity purification (FLAG, 6xHis on β4) from pre1-1 cells overexpressing Pba1-Pba2, separation by native PAGE, bands evaluated by MS; conditions: partners not purified
T3 construct: Pre1/β4, S. cerevisiae, mutant version of the pre1-1 strain; also called pre1-1-FH; Pre1/β4 (β4-S142F)
T3 sequence: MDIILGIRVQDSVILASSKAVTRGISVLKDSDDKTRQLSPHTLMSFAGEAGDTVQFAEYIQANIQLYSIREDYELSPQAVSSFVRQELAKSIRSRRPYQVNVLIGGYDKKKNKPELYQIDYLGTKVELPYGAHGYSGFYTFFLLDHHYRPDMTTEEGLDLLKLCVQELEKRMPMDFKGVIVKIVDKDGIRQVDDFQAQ

[5] = target: B4; assay: cryo-EM structure; late-PC (doubly capped with Pba1-Pba2) isolated via FLAG-6xHis on β4 from pre1-1 cells; 2.1 Å with C2 symmetry, 2.3 Å without; sub-populations late-PC1 (2.7 Å) and late-PC2 (2.3 Å); conditions: both partners purified

T1 sequence (P43583 whole entry): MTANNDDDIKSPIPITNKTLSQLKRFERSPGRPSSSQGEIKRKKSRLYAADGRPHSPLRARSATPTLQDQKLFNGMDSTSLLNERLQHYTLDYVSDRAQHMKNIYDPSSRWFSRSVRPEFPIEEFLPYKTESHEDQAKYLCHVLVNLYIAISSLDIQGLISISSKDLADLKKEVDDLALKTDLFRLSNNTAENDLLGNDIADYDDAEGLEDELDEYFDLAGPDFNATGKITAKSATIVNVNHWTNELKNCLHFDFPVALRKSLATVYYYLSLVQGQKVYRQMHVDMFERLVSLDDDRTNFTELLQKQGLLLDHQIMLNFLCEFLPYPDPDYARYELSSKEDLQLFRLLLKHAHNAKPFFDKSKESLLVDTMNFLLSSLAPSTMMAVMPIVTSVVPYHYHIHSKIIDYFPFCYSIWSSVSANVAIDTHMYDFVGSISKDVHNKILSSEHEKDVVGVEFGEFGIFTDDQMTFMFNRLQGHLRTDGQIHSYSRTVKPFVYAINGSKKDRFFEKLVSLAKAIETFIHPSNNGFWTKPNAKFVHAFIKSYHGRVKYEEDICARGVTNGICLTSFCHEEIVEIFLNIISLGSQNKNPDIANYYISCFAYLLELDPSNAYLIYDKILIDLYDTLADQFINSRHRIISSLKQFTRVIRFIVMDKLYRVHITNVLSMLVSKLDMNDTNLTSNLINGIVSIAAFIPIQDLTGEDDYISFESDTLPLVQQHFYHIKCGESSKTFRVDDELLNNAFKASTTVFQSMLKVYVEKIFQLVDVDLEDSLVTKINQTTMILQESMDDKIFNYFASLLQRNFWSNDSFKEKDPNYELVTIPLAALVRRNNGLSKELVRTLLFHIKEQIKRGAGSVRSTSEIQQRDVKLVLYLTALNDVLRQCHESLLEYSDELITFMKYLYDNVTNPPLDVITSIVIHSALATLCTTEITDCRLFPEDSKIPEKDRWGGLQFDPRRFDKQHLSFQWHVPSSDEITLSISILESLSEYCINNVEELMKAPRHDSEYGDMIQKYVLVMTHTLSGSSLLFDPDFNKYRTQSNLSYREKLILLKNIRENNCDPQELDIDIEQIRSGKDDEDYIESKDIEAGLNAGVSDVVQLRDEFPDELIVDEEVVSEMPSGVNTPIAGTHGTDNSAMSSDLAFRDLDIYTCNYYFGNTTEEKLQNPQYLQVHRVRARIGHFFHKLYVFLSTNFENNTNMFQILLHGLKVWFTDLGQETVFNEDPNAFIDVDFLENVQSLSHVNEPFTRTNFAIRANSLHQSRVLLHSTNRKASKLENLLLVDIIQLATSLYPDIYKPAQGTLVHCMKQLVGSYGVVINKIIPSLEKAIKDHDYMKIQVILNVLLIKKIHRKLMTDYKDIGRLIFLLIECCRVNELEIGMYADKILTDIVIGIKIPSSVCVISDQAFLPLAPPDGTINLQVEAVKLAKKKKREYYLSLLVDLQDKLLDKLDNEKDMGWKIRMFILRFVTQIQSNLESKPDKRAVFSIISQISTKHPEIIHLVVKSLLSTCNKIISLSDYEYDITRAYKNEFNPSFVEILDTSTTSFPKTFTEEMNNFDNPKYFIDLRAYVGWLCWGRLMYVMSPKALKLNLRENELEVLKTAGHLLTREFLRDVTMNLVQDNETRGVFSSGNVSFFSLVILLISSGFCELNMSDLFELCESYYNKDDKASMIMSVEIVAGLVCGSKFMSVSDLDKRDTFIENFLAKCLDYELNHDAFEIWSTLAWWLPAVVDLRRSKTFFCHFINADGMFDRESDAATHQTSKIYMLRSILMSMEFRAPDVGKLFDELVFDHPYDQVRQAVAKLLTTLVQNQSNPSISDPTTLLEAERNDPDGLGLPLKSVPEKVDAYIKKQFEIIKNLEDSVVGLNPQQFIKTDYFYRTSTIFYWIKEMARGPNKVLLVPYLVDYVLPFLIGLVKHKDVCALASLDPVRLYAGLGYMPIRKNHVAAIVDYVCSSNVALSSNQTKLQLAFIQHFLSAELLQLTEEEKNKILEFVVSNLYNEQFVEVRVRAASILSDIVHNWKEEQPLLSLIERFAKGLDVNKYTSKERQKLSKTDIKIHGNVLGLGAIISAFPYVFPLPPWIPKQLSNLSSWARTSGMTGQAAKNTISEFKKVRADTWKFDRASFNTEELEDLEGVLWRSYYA

B1: β2-subunit, autocatalytically processed (natural protein, S. cerevisiae, UniProt P25043 30-261, looked up)
chain: TTIVGVKFNNGVVIAADTRSTQGPIVADKNCAKLHRISPKIWCAGAGTAADTEAVTQLIGSNIELHSLYTSREPRVVSALQMLKQHLFKYQGHIGAYLIVAGVDPTGSHLFSIHAHGSTDVGYYLSLGSGSLAAMAVLESHWKQDLTKEEAIKLASDAIQAGIWNDLGSGSNVDVCVMEIGKDAEYLRNYLTPNVREEKQKSYKFPRGTTAVLKESIVNICDIQEEQVDITA
notes: β2/Pup1, S. cerevisiae, mature subunit beginning at the active site Thr1 after cleavage of the Gly-1/Thr1 bond (29-residue propeptide removed); numbers count on: the mature subunit; also called Pup1; mature β2
[1]
  binding result: binds

B2: α5-subunit (natural protein, S. cerevisiae, UniProt P32379 1-260, looked up)
chain: MFLTRSEYDRGVSTFSPEGRLFQVEYSLEAIKLGSTAIGIATKEGVVLGVEKRATSPLLESDSIEKIVEIDRHIGCAMSGLTADARSMIEHARTAAVTHNLYYDEDINVESLTQSVCDLALRFGEGASGEERLMSRPFGVALLIAGHDADDGYQLFHAEPSGTFYRYNAKAIGSGSEGAQAELLNEWHSSLTLKEAELLVLKILKQVMEEKLDENNAQLSCITKQDGFKIYDNEKTAELIKELKEKEAAESPEEADVEMS
notes: 20S proteasome subunit α5, S. cerevisiae
[2]
  binding result: binds

B3: α6-subunit (natural protein, S. cerevisiae, UniProt P40302 1-234, looked up)
chain: MFRNNYDGDTVTFSPTGRLFQVEYALEAIKQGSVTVGLRSNTHAVLVALKRNADELSSYQKKIIKCDEHMGLSLAGLAPDARVLSNYLRQQCNYSSLVFNRKLAVERAGHLLCDKAQKNTQSYGGRPYGVGLLIIGYDKSGAHLLEFQPSGNVTELYGTAIGARSQGAKTYLERTLDTFIKIDGNPDELIKAGVEAISQSLRDESLTVDNLSIAIVGKDTPFTIYDGEAVAKYI
notes: 20S proteasome subunit α6, S. cerevisiae
[2]
  binding result: binds

## B4
[3]
  binding result: binds

B5: β1-subunit, autocatalytically cleaved (mature, in pre1-1CP) (natural protein, S. cerevisiae, UniProt P38624 20-215, looked up)
chain: TSIMAVTFKDGVILGADSRTTTGAYIANRVTDKLTRVHDKIWCCRSGSAADTQAIADIVQYHLELYTSQYGTPSTETAASVFKELCYENKDNLTAGIIVAGYDDKNKGEVYTIPLGGSVHKLPYAIAGSGSTFIYGYCDKNFRENMSKEETVDFIKHSLSQAIKWDGSSGGVIRMVVLTAAGVERLIFYPDEYEQL
notes: β1/Pre3, S. cerevisiae, mature subunit beginning at Thr1; numbers count on: the mature subunit; also called Pre3
[1]
  binding result: binds

B6: Ump1 (natural protein, S. cerevisiae, UniProt P38293 1-148, looked up)
chain: MNIVPQDTFKSQVSTDQDKSVLSSAVPSLPDTLRQQEGGAVPLSTQLNDRHPLESTLKNWETTQRQRQMEQYRQIFGIAEPMKRTMEMEIVNRTDFNPLSTNGSIHRDILLNKECSIDWEDVYPGTGLQASTMVGDDVHSKIEKQLGI
notes: residues 126-131 not resolved; two Ump1 molecules are encased in one late-PC, one in each half; also called ScUmp1; Ump1 chaperone
[4]
  binding result: binds
[5]
  binding result: binds

B7: β6-subunit (natural protein, S. cerevisiae, UniProt P23724 20-241, looked up)
chain: QFNPYGDNGGTILGIAGEDFAVLAGDTRNITDYSINSRYEPKVFDCGDNIVMSANGFAADGDALVKRFKNSVKWYHFDHNDKKLSINSAARNIQHLLYGKRFFPYYVHTIIAGLDEDGKGAVYSFDPVGSYEREQCRAGGAAASLIMPFLDNQVNFKNQYEPGTNGKVKKPLKYLSVEEVIKLVRDSFTSATERHIQVGDGLEILIVTKDGVRKEFYELKRD
notes: 20S proteasome subunit β6, S. cerevisiae, without its 19-residue propeptide (β6pro)
[1]
  binding result: binds
